Measured values from the RNAGym collection of RNA variant scans (doi:10.1073/pnas.2313332121).
Variants at the floor of the assay were thinned out.

B1: TPR 5TU (parent)
chain: GGAUCUUCUCGAUCUAACAAAAAAGACAAAUCUGCCACAAAGCUUGAGAGCAUCUUCGGAUGCAGAGGCGGCAGCCUUCGGUGGCGCGAUAGCGCCAACGUUCUCAACUAUGACACGCAAAACGCGUGCUCCGUUGAAUGGAGUUUAUCAUG

Variants of: B1
Assay: polymerase ribozyme fitness, log enrichment relative to wild type (log ratio); higher = more active; in vitro selection for triplet polymerase activity
Summary of the method: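 After PCR construction and transcription, each subunit's mutant library from a heterodimeric triplet polymerase ribozyme was annealed with a biotinylated primer, the partner subunit and triplets. Incubation was frozen, at −7 °C, and extended constructs were gel-excised, bound to streptavidin beads and amplified by RT-PCR, in one selection round done in triplicate. Fitness is the logarithm of a genotype's enrichment divided by that of the wild type, from inverse-variance-weighted replicate averages of Illumina-sequenced inputs and outputs. The base of the logarithm is 2, and genotypes needed ≥10 input reads and ≥1 read per output.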

Variant | polymerase ribozyme fitness (log ratio)
U6C U55G | -0.825
C63G G70A | -3.15
A28U U31C A91G C108U G136U A142G | ≤ -4.2
A52G C63G | -0.179
G11U G94A G133C | -2.79
C93G A138G | ≤ -4.2
C5U A37U C51U | -1.26
A41U U55G | -0.663
U55A G88A | ≤ -4.2
C8G G48A C54U C69G C85G A91C | ≤ -4.2
C87A C95A | ≤ -4.2
C5G C87U A98G | -1.31
U13G A23U A37C G83A C96U | ≤ -4.2
U4C A19C C38G C93U C114G | ≤ -4.2
U77C G81A G86U G100A G133U | ≤ -4.2
C57U G68A | -3.56
G42C U56A C79A | ≤ -4.2
A26G C36G C57A G94U A142U G152C | ≤ -4.2
A3U A37C G84U | -2.36
U55A C85A C93G | ≤ -4.2
A49C G83C U90C A122G | ≤ -4.2
G48C G86A G141C U148G G152A | -4.03
C75U G83C A138U A142G | ≤ -4.2
A107C A147U | -3.71

Variant | polymerase ribozyme fitness (log ratio)
U6G U7C A49G G71A C93G | ≤ -4.2
C18G U82C C85A A142C | -2.92
U55G C57A G62C C79U U109G | ≤ -4.2
C18G C51U C85A A107U C118U A137U | ≤ -4.2
U9A U53C A64U C87A G136U A150G | ≤ -4.2
A24U U31C C38U U82A G84A | 0.365
A40C A52C U53A A73U C76A G83C U102A | ≤ -4.2
C75U C85G C103A A107U U146G A147U A150G | ≤ -4.2
A66C C96A A115C C123U G136C | ≤ -4.2
G126A G133C | -0.815
A73C U127A U144G | ≤ -4.2
C57G A91U A147U | ≤ -4.2
A24U C96A | 0.632
A21U C35U G58A G68A A115G C118U G141A | ≤ -4.2
U4C C5A U15C C36G U53A | -4.12
A115G G140U | -3.41
A26U U55A | -1.66
A3C G11U C36G A39U A91U C114U U127G U134G G140C | ≤ -4.2
A21U U33A A39G C87U G136C | ≤ -4.2
U61G G117C A142C U146G | ≤ -4.2
U45A G48C G50C U53A U56A U61G C105G A119G G136U | ≤ -4.2
C8A C38U C57U C79G C96G | ≤ -4.2
U61A A91C | ≤ -4.2
C32A A37C C54G G83A C118A G136U A138C G141C U145G | ≤ -4.2

Variant | polymerase ribozyme fitness (log ratio)
G58A G81A G86A C93U G112C C116U C149G | 1.13
U6G U15A C95G C96U U101G C103A C131A C149A | ≤ -4.2
G80C G128C | -3.87
A22U G34A U55A G59C C95A C118G | -3.53
C72G U127C G143U U144G | ≤ -4.2
A29U A52G C76G G84A C116G C118A A137G G141A C149U G152C | ≤ -4.2
A49U G84A G136U | -3.29
U6A A23C C76G G94A G141C G152U | ≤ -4.2
U15C G50C U101G C105U | -1.68
A3U U33A C43U G84A C85A G140C U146C | ≤ -4.2
A19G C27U G50A | -4.19
A21C C54U | -0.0517
C93A U109G C123G | -3.37
A24G U90C C123G G136C A147G | ≤ -4.2
G68A G83U G88A A107U C114U | ≤ -4.2
U55G C96U | -0.6
A40G G59A G68U | ≤ -4.2
U78C U82G U102G | -3.57
G59U G80A C85A | -0.927
C38U G58C G65A A119G A147C | -2.82
C51U A98U | -0.337
G11A A12U A52G U53C A91U | -4.08
A37C C75U U77G A89C C93A A121C U148G U151G | ≤ -4.2
A20U G62C C63U C95U A122G G143A | -4.12

Variant | polymerase ribozyme fitness (log ratio)
U9C G88C A137C | ≤ -4.2
C79U G100A A115C | -1.13
A20G G86U A91C U146G | ≤ -4.2
G88U C96G A106U G143A | ≤ -4.2
C38A G58C A98G A120C A121U | -0.687
C5G A20C C32A G50C G124C G141C | ≤ -4.2
A16U A39U A49U G50C G84U A119G A121G G140U | ≤ -4.2
C32U G68U C87G C99G | -4.11
C18U G58A | -0.517
U4C C36G G50A C51A C75A G83A G112U C116A | ≤ -4.2
G83U C85A | -3.55
U4C G58A C103A G124A | -3.54
C14U G84U | -3.29
A30G A49G U56A A66U C79U C85U G128A | ≤ -4.2
C96U G141U | -0.301
A40G C51U U56A U78A G83C | ≤ -4.2
G42U C63U G68A C95U G112U U146G | ≤ -4.2
C32A A37G C54A G86C C99A A113G C125U U135A | ≤ -4.2
C14U G81U G84U | -2.93
A16U C54G C87A A98U | ≤ -4.2
C76U U101G G124A | -0.411
A21G A22U U53A C85G C132G | ≤ -4.2
C5U A22U A98G A122U | 0.571
G42A G59A G80A | ≤ -4.2

Variant | polymerase ribozyme fitness (log ratio)
U55A C79A | ≤ -4.2
G50C C85A U144G | ≤ -4.2
G88A A150C | ≤ -4.2
A3C A22U G86A G92U | -2.91
C5G A52C C76G G81A A91U | ≤ -4.2
A52C A73U C85A C103A | ≤ -4.2
G50C G65C C87U | -4.13
U31G G48U G58A C79A C85U U101G | ≤ -4.2
G84A G152A | -2.93
C8A C36A G68C C96U C99A G128C | ≤ -4.2
C63U C72U C105A | -3.97
A40G G71U G86U | ≤ -4.2
C54A U61C G65A G88U C95G C103G A115C A119C U135G U144G | ≤ -4.2
G83A G92U A119G A122C C149G | -4.14
C54G G84C U109C U134G U148A | ≤ -4.2
A40U C54G C118A | -1.63
C14G C54U A64G A66C U82G A97G G140U | ≤ -4.2
G81U C85G | -1.76
C10A A22C A73U C79G C87A A113G | ≤ -4.2
U61G C125A | -1.26
G50U U144A | -0.478
U6A A23U G83A C105U C108A | ≤ -4.2
C87G A97U | ≤ -4.2
C14G C35A G74U G86A A120U | ≤ -4.2

Variant | polymerase ribozyme fitness (log ratio)
A60G C96A | -0.165
A28U A49C G58C G59A G84U U146A C149U | ≤ -4.2
A28U C35A A41U U53A G59A C85U G128A | ≤ -4.2
U6A A26G A64C C87U A89C U146C | ≤ -4.2
U7C C8G A20U U55A A66U G88A C99G G143U | ≤ -4.2
A22U C57A G70C U78A G80A | ≤ -4.2
G50C C93G C99G G126U | ≤ -4.2
G117A G141C | -3.29
A3U U6G G48A A107G | ≤ -4.2
A19C A20U C54A | -1.03
C57U U82G | 0.0517
A23G G94U U148C | ≤ -4.2
U31G G46C C79U G117C U144C | ≤ -4.2
A30U U55A C79U C87U A115C C118G | ≤ -4.2
A40U A113C | -3.79
A39U C54U C76A A91C U139G | ≤ -4.2
A19U G92U A150C | -2.67
A39G U53C U77G A113C C116A | ≤ -4.2
A3G A19U C27A U82A C93G U111G | ≤ -4.2
G70A C87A C99A | ≤ -4.2
C14G U61A C85U C93A C108U A115U | ≤ -4.2
A23C G25A C32A C63U C87A | ≤ -4.2
U33C C38G C93G A137G G141C | ≤ -4.2
C85U A106G | -0.585

Variant | polymerase ribozyme fitness (log ratio)
G34A G94U U101A | ≤ -4.2
A40U G152A | -2.57
C85G A115U | -3.56
A52G C69U C93U | -2.89
A60G U102C | 0.0901
C87A A107G A110G A120G U139C G140A A147G | ≤ -4.2
C5G U6C C57A C85U | -1.26
A19U G58A G62A G67A A89G C108A C116A G152U | ≤ -4.2
A17U C76A A122G | -0.419
A19U A73G | 0.504
A19C A22U C57G C87U G94U C103G U104G C129A | ≤ -4.2
G86U A97U | -1.74
A73G G94U A106G | -0.312
C57A U90A C103G | ≤ -4.2
G84U G126A G136U | -3.56
U56C C57A | 0.0626
C10U C38A G70A C93U A97U C116G U148G | ≤ -4.2
A17U U90A U102A U127A A137G A138C U151A | ≤ -4.2
A91U C125A | -3.87
G42A A49C G62C U77C G88A C96A C132G | ≤ -4.2
A40U A41C A60G A98U A150U | 0.591
A26C G59U A60C U145A | -2.83
A29U C95A A106G U134A | ≤ -4.2
